Measurements from paper PMC5454376, “Molecular mechanism of Gαi activation by non-GPCR proteins with a Gα-Binding and Activating motif” (Nature Communications, 2017).

Assays:
Gαi3 = settings: GBA motif of CALNUC; cited from earlier work
Text: The disordered nature of GIV-CT is intrinsic and not a consequence of the truncation of the protein at residue 1,660 since disorder is predicted for the C-terminal 330 residues of the GIV sequence, and larger fragments of GIV can also recapitulate G-protein binding and/or activation in a GBA motif-dependent manner. The ...

Gαi3-[GTP] = experiment: Pull-down, GDP/AlF4^−-loaded Gαi3; format: binding, rat; settings: GST fusion on glutathione-agarose, 4 °C, pH 8.1, immunoblot
Method: (§1) Preparation of nucleotide-free Gαi3 and pull-down assay
(§2) His-tagged rat Gαi3 cloned in a pET28b vector was purified from BL21(DE3) bacteria (Life Technologies) after isopropyl-[beta]-D-thiogalactoside (IPTG) induction. Nucleotide-free Gαi3 was prepared by promoting nucleotide release with high concentrations of ammonium sulfate in the presence of glycerol. For this, His-Gαi3 was run through a Superdex S75 column equilibrated with 20 mM Tris-HCl (pH 7.4), 20 mM NaCl, 1 mM MgCl2, 1 mM dithiothreitol (DTT), 10 μM GDP and 5% (v/v) glycerol. A volume of 200 μl of His-Gαi3 at ∼5 μM were loaded on a Sephadex G-25 column (10 ml) equilibrated with 1 M ammonium sulfate, 20% (v:v) glycerol (pH 6) and the protein eluted at room temperature with the same buffer. Protein-containing fractions were pooled (∼400–600 μl) and incubated overnight at 4 °C. […] After transfer to polyvinylidene difluoride (PVDF) membranes, GST-fused proteins were visualized by Ponceau S staining and His-Gαi3 detected by immunoblotting with mouse anti-polyHis-Tag primary antibodies (1:2,500, Sigma, H1029) and goat anti-mouse IRDye 800F(ab′)2 secondary antibodies (1:10,000, Li-Cor) using an Odyssey Infrared Imaging System (Li-Cor Biosciences). […]

Gαi3-[ ] = experiment: Pull-down, nucleotide-free Gαi3; format: binding, rat; settings: GST fusion on glutathione-agarose (GIV 1,671–1,755; Ric-8A 12–491), 4 °C, pH 8.1, immunoblot
Method: as §1, §2

Gαi3 N269D = experiment: Co-immunoprecipitation in HEK293T cells, Gαi3 N269D versus WT; format: binding; settings: HEK293T lysates, FLAG-tagged Gαi3 N269D vs WT; GST-Ric-8A 1 μg added
Method: HEK293T cells (American Type Culture Collection) were grown at 37 °C in DMEM supplemented with 10% FBS, 100 U ml^−1 penicillin, 100 μg ml^−1 streptomycin, 1% L-glutamine and 5% CO2. DNA plasmids encoding for C-terminally 3xFLAG-tagged Gαi3 (ref. [25]) or an empty plasmid (p3xFLAG-CMV-14) were transfected using the calcium phosphate method in 10 cm dishes. The DNA amount for the Gαi3 N269D plasmid was threefold (12 μg) of that for Gαi3 WT (4 μg) to equalize their expression levels. Cells were collected 48 h after transfection by gently scrapping in PBS, centrifuged and resuspended in 1 ml of lysis buffer (20 mM HEPES (pH 7.2), 5 mM Mg(CH3COO)2, 125 mM K(CH3COO), 0.4% (v:v) Triton X-100, 1 mM DTT, 10 mM β-glycerophosphate and 0.5 mM Na3VO4 supplemented with a protease inhibitor cocktail (Sigma; catalogue #S8830)) and cleared (14,000g for 10 min) before use. Lysates were supplemented with 1 μg of purified GST-Ric-8A (12–491)[22] and 2 μg of mouse anti-FLAG antibody (Sigma F1804), and incubated for 4 h at 4 °C with rotation. BSA-blocked Protein G agarose beads (Thermo-Scientific) were added and tubes incubated for additional 90 min at 4 °C. Beads were washed four times (4.3 mM Na2HPO4, 1.4 mM KH2PO4, pH 7.4, 137 mM NaCl, 2.7 mM KCl, 0.1% (v/v) Tween 20, 10 mm MgCl2, 5 mm EDTA and 1 mm DTT) and immunoprecipitated proteins eluted by boiling in Laemmli sample buffer. […]

Gα = settings: cited from earlier work
Text: GBA proteins also differ from the non-receptor GEF Ric-8A. Although both Ric-8A and GBA proteins activate monomeric Gα instead of Gαβγ trimers, removal of the C terminus of Gα only abrogates Ric-8A action. This indicates a different mode of G-protein binding for Ric-8A that resembles how GPCR bind. […] We are confident about the similarity on which the model was built because of several lines of evidence presented in this manuscript and in previously published work. […] Second, sequence similarity with the KB-752 and rudimentary modeling allowed us to identify residues in the GBA motif of GIV ...

Gαi3-[GDP] = experiment: Pull-down, GDP-loaded Gαi3; format: binding, rat; settings: GST fusion on glutathione-agarose, 100 μM GDP, 4 °C, pH 8.1, immunoblot
Method: as §1, §2

Row | Molecule | Gαi3 binding, calcium dependence (Gαi3) | binding to Gαi3-[GTP] (Gαi3-[GTP]) | binding to Gαi3-[ ] (Gαi3-[ ]) | co-immunoprecipitation with nucleotide-free-mimicking mutant compared with WT (Gαi3 N269D) | effect of removal of the C terminus of Gα (Gα) | binding to Gαi3-[GDP] (Gαi3-[GDP])
1 | CALNUC: GBA motif protein with calcium-binding EF hands (protein, UniProt Q02818 27-461, looked up) Nucleobindin-1: VPLERGAPNKEETPATESPDTGLYYHRYLQEVIDVLETDGHFREKLQAANAEDIKSGKLSRELDFVSHHVRTKLDELKRQEVSRLRMLLKAKMDAEQDPNVQVDHLNLLKQFEHLDPQNQHTFEARDLELLIQTATRDLAQYDAAHHEEFKRYEMLKEHERRRYLESLGEEQRKEAERKLEEQQRRHREHPKVNVPGSQAQLKEVWEELDGLDPNRFNPKTFFILHDINSDGVLDEQELEALFTKELEKVYDPKNEEDDMREMEEERLRMREHVMKNVDTNQDRLVTLEEFLASTQRKEFGDTGEGWETVEMHPAYTEEELRRFEEELAAREAELNAKAQRLSQETEALGRSQGRLEAQKRELQQAVLHMEQRKQQQQQQQGHKAPAAHPEGQLKFHPDTDDVPVPAPAGDQKEVDTSEKKLLERLPEVEVPQHL | only when the protein is not calcium-bound |  |  |  |  | 
2 | Ric-8A: non-receptor GEF used as control (protein, left off: GST, end not stated, kept, non-receptor GEF used as control) TGEEDAVTEALRSFNREHSQSFTFDDAQQEDRKRLAKLLVSVLEQGLSPKHRVTWLQTIRILSRDRSCLDSFASRQSLHALACYADIAISEEPIPQPPDMDVLLESLKCLCNLVLSSPTAQMLAAEARLVVRLAERVGLYRKRSYPHEVQFFDLRLLFLLTALRTDVRQQLFQELHGVRLLTDALELTLGVAPKENPLVILPAQETERAMEILKVLFNITYDSVKREVDEEDAALYRYLGTLLRHCVMADAAGDRTEEFHGHTVNLLGNLPLKCLDVLLALELHEGSLEFMGVNMDVINALLAFLEKRLHQTHRLKECVAPVLSVLTECARMHRPARKFLKAQVLPPLRDVRTRPEVGDLLRNKLVRLMTHLDTDVKRVAAEFLFVLCSESVPRFIKYTGYGNAAGLLAARGLMAGGRPEGQYSEDEDTDTEEYREAKASINPVTGRVEEKPPNPMEGMTEEQKEHEAMKLVNMFDKLSR |  | dissociation | binds preferentially | binds more | abrogates | weaker binding
3 | GAIP: GAIP (also known as RGS19), a GAP used as control (protein, left off: GST, end not stated, kept, GAIP (also known as RGS19), a GAP used as control) MPTPHEAEKQITGPEEADRPPSMSSHDTASPAAPSRNPCCLCWCCCCSCSWNQERRRAWQASRESKLQPLPSCEVCATPSPEEVQSWAQSFDKLMHSPAGRSVFRAFLRTEYSEENMLFWLACEELKAEANQHVVDEKARLIYEDYVSILSPKEVSLDSRVREGINKKMQEPSAHTFDDAQLQIYTLMHRDSYPRFLSSPTYRALLLQGPSQSSSEA |  | binds exclusively |  |  |  | not to Gαi3-[GDP]
